Columns and labels:
[1] = target: T1, b-KDRIg4-7-myc-his (UniProt P35968 328-764, prefix 'b-' not explained; captured on neutravidin-coated plates (presumably biotinylated, site not stated)); experiment: ELISA, b-KDRIg4-7-myc-his 1 ug/mL on neutravidin, hybridoma supernatant 1:5
T1 construct: domain: Ig4-7; The text calls it 'a KDR antibody containing the Ig4-7 domain'; it is read as the KDR fragment; Purified on a nickel column; also called Ig4-7 domain of KDR; soluble KDR Ig4-7; not shown: myc-his tag of the pSecTag vector
Method: To screen by binding to the Ig4-7 domain of KDR, plates were first coated with neutravadin (Pierce) at 4 μg/mL and incubated overnight at 4° C. The plates were then blocked and subsequently incubated with b-KDRIg4-7-myc-his at 1 μg/mL for one hour at room temperature. Candidate hybridoma supernatants (at 1:5 dilution) were transferred to the plates and incubated for one hour at room temperature. The plates were then washed and incubated with goat anti-human IgG Fc POD (at 1:4000 dilution) for one hour at room temperature.

[2] = target: T2, mouse KDR (Flk-1)/Fc (Cat. #443-KD/CF, R&D Systems) (mouse, UniProt P35918 20-762); experiment: ELISA, plate-coated Flk-1/Fc 500 ng/mL, hybridoma supernatant 1:5
T2 construct: Bought reagent; also called mouse VEGFR2; KDR mouse ortholog; Fc part of the bought chimera not given
Method: The cross-reactivity of antibodies in the hybridoma supernatant was tested against KDR mouse ortholog (mouse VEGFR2, or Flk-1) and human VEGFR1 (Flt-1). Cross-reactivity was measured using an ELISA based assay.
After washing and blocking the plates, the antibody-containing supernatants were added (at 1:5 dilution) into the coated wells and incubated for one hour at room temperature. The plates were then incubated with mouse anti-human IgG 2, 3 and 4 and subsequently with goat anti-mouse IgG Fc POD, to detect and measure bound antibodies.

[3] = target: T3, human KDR (VEGFR2) on cells (human, UniProt P35968 20-1356); experiment: cell-based or functional assay
[4] = target: T3, human KDR (VEGFR2) on cells; experiment: cell-based or functional assay; remark: listed apart in the source
[5] = target: T3, human KDR (VEGFR2) on cells; experiment: cell-based or functional assay; remark: listed apart in the source
[6] = target: T3, human KDR (VEGFR2) on cells; experiment: FACS on HUVEC, hybridoma supernatant 1:50
Method in brief: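 HUVECs incubated 1 h at 4° C with hybridoma supernatant at 1:50, then Cy5 goat anti-human antibody (5 μg/mL) plus 7AAD (5 μg/mL) for 15 min at 4° C. Cell-surface binding read by FACS; goat anti-KDR antibody as positive control, irrelevant hybridoma supernatants as negative controls.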

[7] = target: T4, soluble KDR (VEGF Receptor 2 D1-7, Cat. #676490, Calbiochem) (human, UniProt P35968 20-764); experiment: ELISA, plate-coated soluble KDR 250 ng/mL, hybridoma supernatant 1:5
T4 construct: extracellular domain; Bought reagent; also called soluble human KDR; immobilized soluble KDR
Method: To screen by binding to immobilized soluble KDR, plates were coated with KDR (Calbiochem) at 250 ng/mL overnight at 4° C. After blocking and washing the coated plates, the candidate hybridoma supernatants (at 1:5 dilution) were transferred to the plates and incubated for one hour at room temperature. The plates were then washed and incubated with secondary antibody (at 1:4000 dilution) for one hour at room temperature.

T2 sequence (P35918 20-762): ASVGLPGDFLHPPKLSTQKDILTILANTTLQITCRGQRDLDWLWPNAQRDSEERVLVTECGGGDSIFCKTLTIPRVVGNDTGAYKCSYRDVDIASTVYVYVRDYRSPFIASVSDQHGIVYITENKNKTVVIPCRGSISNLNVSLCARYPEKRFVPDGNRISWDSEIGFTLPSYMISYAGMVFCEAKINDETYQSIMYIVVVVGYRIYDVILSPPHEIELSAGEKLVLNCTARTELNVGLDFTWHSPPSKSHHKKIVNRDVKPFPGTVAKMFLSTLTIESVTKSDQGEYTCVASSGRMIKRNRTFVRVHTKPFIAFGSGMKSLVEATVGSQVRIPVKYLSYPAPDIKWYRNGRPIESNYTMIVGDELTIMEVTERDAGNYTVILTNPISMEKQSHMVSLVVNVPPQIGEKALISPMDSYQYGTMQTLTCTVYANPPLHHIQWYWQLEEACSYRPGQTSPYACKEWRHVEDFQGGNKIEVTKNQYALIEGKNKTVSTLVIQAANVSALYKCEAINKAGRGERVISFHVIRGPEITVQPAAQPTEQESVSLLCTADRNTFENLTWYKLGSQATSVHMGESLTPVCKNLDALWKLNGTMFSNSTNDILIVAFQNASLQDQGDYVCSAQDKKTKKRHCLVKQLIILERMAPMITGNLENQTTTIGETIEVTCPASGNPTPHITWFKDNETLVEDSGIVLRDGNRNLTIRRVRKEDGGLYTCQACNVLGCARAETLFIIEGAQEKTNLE
T4 sequence (P35968 20-764): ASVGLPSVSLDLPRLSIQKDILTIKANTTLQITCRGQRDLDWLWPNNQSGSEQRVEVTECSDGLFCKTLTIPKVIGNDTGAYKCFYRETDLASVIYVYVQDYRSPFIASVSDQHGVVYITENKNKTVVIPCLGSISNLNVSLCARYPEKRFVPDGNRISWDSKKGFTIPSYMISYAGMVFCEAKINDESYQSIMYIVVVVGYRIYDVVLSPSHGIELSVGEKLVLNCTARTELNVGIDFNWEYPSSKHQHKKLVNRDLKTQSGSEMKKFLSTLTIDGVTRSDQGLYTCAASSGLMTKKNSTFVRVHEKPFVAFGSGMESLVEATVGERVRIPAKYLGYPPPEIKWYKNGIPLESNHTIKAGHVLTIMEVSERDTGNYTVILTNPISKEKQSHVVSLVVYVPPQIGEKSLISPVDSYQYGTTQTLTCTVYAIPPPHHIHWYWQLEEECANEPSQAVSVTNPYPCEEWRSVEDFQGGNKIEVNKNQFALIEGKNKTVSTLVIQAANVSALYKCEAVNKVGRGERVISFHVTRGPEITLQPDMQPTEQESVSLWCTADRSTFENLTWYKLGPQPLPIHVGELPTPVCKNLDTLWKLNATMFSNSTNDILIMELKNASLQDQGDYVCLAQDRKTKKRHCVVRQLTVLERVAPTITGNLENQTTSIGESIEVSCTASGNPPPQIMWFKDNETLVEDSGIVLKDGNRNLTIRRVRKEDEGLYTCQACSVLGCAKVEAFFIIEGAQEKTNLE
T3 sequence (P35968 20-1356): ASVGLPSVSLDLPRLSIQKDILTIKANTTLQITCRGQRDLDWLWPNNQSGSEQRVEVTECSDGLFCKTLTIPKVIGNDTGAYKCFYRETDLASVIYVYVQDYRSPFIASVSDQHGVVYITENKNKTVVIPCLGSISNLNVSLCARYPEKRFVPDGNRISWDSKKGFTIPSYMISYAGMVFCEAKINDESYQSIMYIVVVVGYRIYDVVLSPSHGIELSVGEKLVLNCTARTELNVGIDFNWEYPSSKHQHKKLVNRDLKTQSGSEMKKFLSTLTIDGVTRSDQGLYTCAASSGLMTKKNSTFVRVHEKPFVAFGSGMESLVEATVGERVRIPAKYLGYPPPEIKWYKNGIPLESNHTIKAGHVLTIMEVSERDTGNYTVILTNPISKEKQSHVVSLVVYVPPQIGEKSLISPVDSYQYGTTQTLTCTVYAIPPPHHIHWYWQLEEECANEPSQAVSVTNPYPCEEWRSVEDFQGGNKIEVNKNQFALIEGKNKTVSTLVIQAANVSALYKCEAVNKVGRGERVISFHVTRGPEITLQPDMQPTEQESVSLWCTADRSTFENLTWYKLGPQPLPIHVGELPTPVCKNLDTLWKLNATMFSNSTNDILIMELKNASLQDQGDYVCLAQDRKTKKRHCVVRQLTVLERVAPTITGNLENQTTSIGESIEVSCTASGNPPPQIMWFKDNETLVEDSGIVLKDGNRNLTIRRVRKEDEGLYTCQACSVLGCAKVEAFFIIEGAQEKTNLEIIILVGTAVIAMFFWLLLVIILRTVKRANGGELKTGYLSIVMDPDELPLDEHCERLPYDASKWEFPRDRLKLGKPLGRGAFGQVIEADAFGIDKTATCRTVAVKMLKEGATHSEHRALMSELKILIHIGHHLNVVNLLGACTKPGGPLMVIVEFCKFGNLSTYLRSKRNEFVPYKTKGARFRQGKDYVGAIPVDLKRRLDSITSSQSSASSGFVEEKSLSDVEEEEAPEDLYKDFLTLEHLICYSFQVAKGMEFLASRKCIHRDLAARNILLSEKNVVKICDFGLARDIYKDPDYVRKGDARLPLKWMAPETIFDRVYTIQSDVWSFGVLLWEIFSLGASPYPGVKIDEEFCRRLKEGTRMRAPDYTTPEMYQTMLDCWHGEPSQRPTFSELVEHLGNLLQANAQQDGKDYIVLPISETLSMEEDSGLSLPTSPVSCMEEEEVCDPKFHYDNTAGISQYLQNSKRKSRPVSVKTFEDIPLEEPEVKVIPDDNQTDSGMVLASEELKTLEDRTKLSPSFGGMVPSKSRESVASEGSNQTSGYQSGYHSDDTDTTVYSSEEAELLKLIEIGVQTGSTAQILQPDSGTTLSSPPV
T1 sequence (P35968 328-764): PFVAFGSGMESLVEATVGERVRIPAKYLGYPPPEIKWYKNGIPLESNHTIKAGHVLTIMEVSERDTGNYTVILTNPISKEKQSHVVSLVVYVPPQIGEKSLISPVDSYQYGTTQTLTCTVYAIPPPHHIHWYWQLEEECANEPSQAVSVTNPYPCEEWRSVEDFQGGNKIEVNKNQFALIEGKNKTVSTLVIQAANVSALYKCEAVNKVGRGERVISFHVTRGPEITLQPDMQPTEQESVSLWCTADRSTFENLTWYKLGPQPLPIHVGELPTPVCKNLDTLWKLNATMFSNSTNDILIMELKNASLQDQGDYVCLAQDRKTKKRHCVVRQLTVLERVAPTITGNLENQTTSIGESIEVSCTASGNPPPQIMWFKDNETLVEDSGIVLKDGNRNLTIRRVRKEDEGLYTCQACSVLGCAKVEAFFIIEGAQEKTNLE

Binder	b-KDRIg4-7 OD(450 nm) [1] [OD450]	OD (450 nm) [2] [OD450]	% Inhibition of VEGF165-mediated pTyr Activity, Average [3] [%]	% Inhibition of VEGF165-mediated pTyr Activity, n = 1 [3] [%]	% Inhibition of VEGF165-mediated pTyr Activity, n = 2 [3] [%]	% Inhibition of VEGF165-mediated pTyr Activity, n = 3 [3] [%]	% Inhibition of VEGF-E-mediated pTyr Activity [4] [%]	HUVEC survival (n = 1) 1:10 dilution of supernatant (RLU) [5] [RLU]	HUVEC survival (n = 2) 1:20 dilution of supernatant (RLU) [5] [RLU]	FACS Geometric Mean [6]	KDR OD(450 nm) [7] [OD450]
anti-KDR monoclonal antibody 22B8 (antibody, V domains shown, Fully human mAb from XenoMouse (IgG2 or IgG4 strain); hybridoma supernatant) VH: QLQLQESGPGLVKPSETLSLTCTVSGGSISSRYYYWGWVRQPPGKGLEWIGTIYYSGHTYYNPSLKTRVTISVDTSKNQFSLKLISVTAADTAVYYCATQQLVLYYFDFWGQGTLVTVSS VL: EIVLTQSPGTLSLSPGERAALSCRASQSISSSYLAWYQQRPGQAPRLLIYGASSRATGIPDRFNGSGSGTDFTLTISRLEPEDFAVYYCQQFGSSITFGQGTRLEIK	2.81	0.074	67	82	65	53	61	12900	3260	24	1.18
anti-KDR monoclonal antibody 27D10 (antibody, V domains shown, Fully human mAb from XenoMouse (IgG2 or IgG4 strain); hybridoma supernatant) VH: QLQLQESGPGLVKPSETLSLTCTVSGGSISSRSDYWGWIRQPPGKGLEWIGTIYYSGSTFYNPSLKSRVTISVDTSKNQFSLKLSSVTAADTAVYYCARQQLVLYYFDYWGQGTLVTVSS VL: not shown	2.03	0.166	58	62	48	63	63	20100	9710	24	3.24
anti-KDR monoclonal antibody 29D4 (antibody, V domains shown, Fully human mAb from XenoMouse (IgG2 or IgG4 strain); hybridoma supernatant) VH: QLQLQESGPGLVKPSETLSLTCTVSGGSISSRSNYWGWIRQPPGKGLEWIGTIYYSGHTYYNPSLKSRVSISVDTSKNQFSLKLSSVTATDTALYYCARQQLVLYYFEYWGQGTLVTVSS VL: not shown	2.61	0.1	72	85	67	63	67	12900	5380	26	1
anti-KDR monoclonal antibody 30A1 (antibody, V domains shown, Fully human mAb from XenoMouse (IgG2 or IgG4 strain); hybridoma supernatant) VH: QLQLQESGPGLVKPSETLSLTCTVSGGSISSPNYYWGWIRQPPGKGLEWIGTIYYSGNTFYNPSLKSRVTISVDTSKNQFSLKLSSVTAADTAVYYCATQQLVLYYFDFWGQGTLVTVSS VL: EIVLTQSPGTLSLSPGKRAALSCRASQSISSSYLAWYQQKPGQAPRLLIYGASSRATGIPDRFNGSGSGTDFTLTISRLEPEDFAVYYCQQLGSSITFGQGTRLEIK	1.21	0.107	65	86	59	52	50	14400	9730	25	0.786
anti-KDR monoclonal antibody 33E1 (antibody, V domains shown, Fully human mAb from XenoMouse (IgG2 or IgG4 strain); hybridoma supernatant) VH: QVQLQESGPGLVKPSQTLSLTCTVSGGSISSGDHYWSWIRQHPGKGLEWIGHIYYSGSTDYNPSLKSRVTISVDTSKNHFSLKLNSVTAADTAVYYCARTNSSSWSDWYFDLWGRGTLVTVSS VL: DIVMTQSPDSLAVSLGERATINCKSSQSILYSSNNKNYLAWYQRKPGQPPILLIHWASTRESGVPDRFSGSGSRTDFTLTISSLQAEDVAVYYCQQYFITPWTFGQGTKVEIK	0.62	0.097	73	88	78	52	46	25700	2310	14	4.55
anti-KDR monoclonal antibody 29H3 (antibody, V domains shown, Fully human mAb from XenoMouse (IgG2 or IgG4 strain); hybridoma supernatant) VH: QVQLVQSGAEVKKPGASVKVSCKASGYTFTSYDINWVRQATGQGLEWMGWMNPNSGKTGYAQKFQGRVTMTRNTSINTAYMELSSLRSEDTAVYYCARGGYSNLGWFDPWGQGTLVTVSS VL: DIQMTQSPSSVSASVGDRVTITCRASQGISSWLVWYHQKPGKAPKLLIYGASSLQSGVPSRFSGSGSGTDFTLTISSLQPEDFATYYCQQANNFPFTFGPGTKVDIK	0.071	0.096	76	89	72	66	18	32700	544	27	0.83
anti-KDR monoclonal antibody 32G7 (antibody, V domains shown, Fully human mAb from XenoMouse (IgG2 or IgG4 strain); hybridoma supernatant) VH: EVQLVESGGGLVKPGGSLRLSCAASGFTISSYSMNWVRQAPGKGLEWVSFISSRSNYIYYADSVKGRFTISRDNAKNSLYLQMNSLRAEDTAVYYCSKDDWFEELWGQGTLVTVSS VL: DIQMTQSPSSLSASVGDRVTITCRASQDIRNDLGWYQQKPGKAPKRLIYAASSLQSGVPSRFSGSGSGTEFTLTISSLQPEDFATYYCLQHNSFPWTFGQGTKVEIK	0.068	0.092	44	73	47	11	57	24900	11900	28	1.07
anti-KDR monoclonal antibody 33B1 (antibody, V domains shown, Fully human mAb from XenoMouse (IgG2 or IgG4 strain); hybridoma supernatant) VH: EVQLVESGGGLVKPGGSLRLSCAASGFTFSSYTMNWVRQAPGKGLEWVSFIDSRSSYIYYADSVKGRFTISRDNAKNSLYLQMNSLRAEDTAVYYCSKDDWFEELWGQGTLVTVSS VL: DIQMTQSPSSLSASVGDRVTITCRASQGIRNDLGWYQQKPGKAPKRLIYATSSLQSGVPSRFSGSGSGTEFTLTISSLQPEDFATYYCLHHNSFPWTFGQGTKVEIK	0.058	0.108	54	76	56	31	54	19400	12500	25	1.11
anti-KDR monoclonal antibody 33C3 (antibody, V domains shown, Fully human mAb from XenoMouse (IgG2 or IgG4 strain); hybridoma supernatant) VH: QVQLVESGGGLVKPGESLRLSCAASGFTFSDYYMSWIRQAPGKGLEWVSYISHGGSTIYYADSVKGRFTISRDNAKNSLYLQMNSLRVEDTAVYFCARDDFWSGYYFNWFDPWGQGALVTVSS VL: DIQMTQYPLSLSASVGDRVTITCRASQSISSFLNWYHQKPGKAPKLLIYGTSSLQSGVPSRFSGSGSGTDFTLTISSLQPEDFATYYCQQTYSIPLTFGGGTNVEIK	3.66	0.076	71	87	75	50	66	6540	4710	20	1.15

— patent publication US20100260765A1 (AstraZeneca / MedImmune, published 2010)
